In patent US20250171562A1 (ALK ABELL, published 2025):

B1: CIgG4B1A1(G3S) (Fc fusion)
chain 1: GPPCPPCPAPEFLGGPSVFLFPPKPKDTLMISRTPEVTCVVVDVSQEDPEVQFNWYVDGVEVHNAKTKPREEQFNSTYRVVSVLTVLHQDWLNGKEYKCKVSNKGLPSSIEKTISKAKGQPREPQVYTLPPCQEEMTKNQVSLWCLVKGFYPSDIAVEWESNGQPENNYKTTPPVLDSDGSFFLYSRLTVDKSRWQEGNVFSCSVMHEALHNHYTQKSLSLSLGKGGGSQVQLQESGGGLVQTGGSLRLSCAVHGRTFSNTGMGWFRQAPGNERQFVAIISPSGTSTYYADSVKGRFTISRDPAKNTVYLQMNSLKMDDTAVYYCAASYGSNWSTLRHQRRNEYDAWGQGTQVAVS
chain 2: GPPCPPCPAPEFLGGPSVFLFPPKPKDTLMISRTPEVTCVVVDVSQEDPEVQFNWYVDGVEVHNAKTKPREEQFNSTYRVVSVLTVLHQDWLNGKEYKCKVSNKGLPSSIEKTISKAKGQPREPQVCTLPPSQEEMTKNQVSLSCAVKGFYPSDIAVEWESNGQPENNYKTTPPVLDSDGSFFLVSRLTVDKSRWQEGNVFSCSVMHEALHNHYTQKSLSLSLGKGGGSEVQLLESGGGLVQPGGSLRLSCAASGFTFGNYDMAWVRQAPGKRPEWVSSIDTGGDITHYADSVKGRFTISRDNAKNTLYLQMNSLRPEDTAVYWCATDEEYALGPNEFDYYGQGTLVTVSS
B2: CIgG4B1A1(G2S) (Fc fusion)
chain 1: GPPCPPCPAPEFLGGPSVFLFPPKPKDTLMISRTPEVTCVVVDVSQEDPEVQFNWYVDGVEVHNAKTKPREEQFNSTYRVVSVLTVLHQDWLNGKEYKCKVSNKGLPSSIEKTISKAKGQPREPQVYTLPPCQEEMTKNQVSLWCLVKGFYPSDIAVEWESNGQPENNYKTTPPVLDSDGSFFLYSRLTVDKSRWQEGNVFSCSVMHEALHNHYTQKSLSLSLGKGGSQVQLQESGGGLVQTGGSLRLSCAVHGRTFSNTGMGWFRQAPGNERQFVAIISPSGTSTYYADSVKGRFTISRDPAKNTVYLQMNSLKMDDTAVYYCAASYGSNWSTLRHQRRNEYDAWGQGTQVAVS
chain 2: GPPCPPCPAPEFLGGPSVFLFPPKPKDTLMISRTPEVTCVVVDVSQEDPEVQFNWYVDGVEVHNAKTKPREEQFNSTYRVVSVLTVLHQDWLNGKEYKCKVSNKGLPSSIEKTISKAKGQPREPQVCTLPPSQEEMTKNQVSLSCAVKGFYPSDIAVEWESNGQPENNYKTTPPVLDSDGSFFLVSRLTVDKSRWQEGNVFSCSVMHEALHNHYTQKSLSLSLGKGGSEVQLLESGGGLVQPGGSLRLSCAASGFTFGNYDMAWVRQAPGKRPEWVSSIDTGGDITHYADSVKGRFTISRDNAKNTLYLQMNSLRPEDTAVYWCATDEEYALGPNEFDYYGQGTLVTVSS
B3: CIgG4B1A1(G2SG2S) (Fc fusion)
chain 1: GPPCPPCPAPEFLGGPSVFLFPPKPKDTLMISRTPEVTCVVVDVSQEDPEVQFNWYVDGVEVHNAKTKPREEQFNSTYRVVSVLTVLHQDWLNGKEYKCKVSNKGLPSSIEKTISKAKGQPREPQVYTLPPCQEEMTKNQVSLWCLVKGFYPSDIAVEWESNGQPENNYKTTPPVLDSDGSFFLYSRLTVDKSRWQEGNVFSCSVMHEALHNHYTQKSLSLSLGKGGSGGSQVQLQESGGGLVQTGGSLRLSCAVHGRTFSNTGMGWFRQAPGNERQFVAIISPSGTSTYYADSVKGRFTISRDPAKNTVYLQMNSLKMDDTAVYYCAASYGSNWSTLRHQRRNEYDAWGQGTQVAVS
chain 2: GPPCPPCPAPEFLGGPSVFLFPPKPKDTLMISRTPEVTCVVVDVSQEDPEVQFNWYVDGVEVHNAKTKPREEQFNSTYRVVSVLTVLHQDWLNGKEYKCKVSNKGLPSSIEKTISKAKGQPREPQVCTLPPSQEEMTKNQVSLSCAVKGFYPSDIAVEWESNGQPENNYKTTPPVLDSDGSFFLVSRLTVDKSRWQEGNVFSCSVMHEALHNHYTQKSLSLSLGKGGSGGSEVQLLESGGGLVQPGGSLRLSCAASGFTFGNYDMAWVRQAPGKRPEWVSSIDTGGDITHYADSVKGRFTISRDNAKNTLYLQMNSLRPEDTAVYWCATDEEYALGPNEFDYYGQGTLVTVSS
B4: CIgG4A1B1(G4S)1 (Fc fusion)
chain 1: GPPCPPCPAPEFLGGPSVFLFPPKPKDTLMISRTPEVTCVVVDVSQEDPEVQFNWYVDGVEVHNAKTKPREEQFNSTYRVVSVLTVLHQDWLNGKEYKCKVSNKGLPSSIEKTISKAKGQPREPQVCTLPPSQEEMTKNQVSLSCAVKGFYPSDIAVEWESNGQPENNYKTTPPVLDSDGSFFLVSRLTVDKSRWQEGNVFSCSVMHEALHNHYTQKSLSLSLGKGGGGSQVQLQESGGGLVQTGGSLRLSCAVHGRTFSNTGMGWFRQAPGNERQFVAIISPSGTSTYYADSVKGRFTISRDPAKNTVYLQMNSLKMDDTAVYYCAASYGSNWSTLRHQRRNEYDAWGQGTQVAVS
chain 2: GPPCPPCPAPEFLGGPSVFLFPPKPKDTLMISRTPEVTCVVVDVSQEDPEVQFNWYVDGVEVHNAKTKPREEQFNSTYRVVSVLTVLHQDWLNGKEYKCKVSNKGLPSSIEKTISKAKGQPREPQVYTLPPCQEEMTKNQVSLWCLVKGFYPSDIAVEWESNGQPENNYKTTPPVLDSDGSFFLYSRLTVDKSRWQEGNVFSCSVMHEALHNHYTQKSLSLSLGKGGGGSEVQLLESGGGLVQPGGSLRLSCAASGFTFGNYDMAWVRQAPGKRPEWVSSIDTGGDITHYADSVKGRFTISRDNAKNTLYLQMNSLRPEDTAVYWCATDEEYALGPNEFDYYGQGTLVTVSS
notes: B1 on the hole (437), A1 on the knob (106)
B5: CIgG4F6A1(G4S)2 (Fc fusion)
chain 1: GPPCPPCPAPEFLGGPSVFLFPPKPKDTLMISRTPEVTCVVVDVSQEDPEVQFNWYVDGVEVHNAKTKPREEQFNSTYRVVSVLTVLHQDWLNGKEYKCKVSNKGLPSSIEKTISKAKGQPREPQVYTLPPCQEEMTKNQVSLWCLVKGFYPSDIAVEWESNGQPENNYKTTPPVLDSDGSFFLYSRLTVDKSRWQEGNVFSCSVMHEALHNHYTQKSLSLSLGKGGGGSGGGGSDVQLQESGGGLVQAGGSLRLSCAASGLTFGSYDMGWYRQAPGKQRELVGRIRNDGITYYADSVKGRFTMSRDNAKNTVYLQMNSLKPEDTAVYYCAADGTGLGHYDYWGQGTQVTVS
chain 2: GPPCPPCPAPEFLGGPSVFLFPPKPKDTLMISRTPEVTCVVVDVSQEDPEVQFNWYVDGVEVHNAKTKPREEQFNSTYRVVSVLTVLHQDWLNGKEYKCKVSNKGLPSSIEKTISKAKGQPREPQVCTLPPSQEEMTKNQVSLSCAVKGFYPSDIAVEWESNGQPENNYKTTPPVLDSDGSFFLVSRLTVDKSRWQEGNVFSCSVMHEALHNHYTQKSLSLSLGKGGGGSGGGGSEVQLLESGGGLVQPGGSLRLSCAASGFTFGNYDMAWVRQAPGKRPEWVSSIDTGGDITHYADSVKGRFTISRDNAKNTLYLQMNSLRPEDTAVYWCATDEEYALGPNEFDYYGQGTLVTVSS
B6: CIgG4F6A1(G4S)3 (Fc fusion)
chain 1: GPPCPPCPAPEFLGGPSVFLFPPKPKDTLMISRTPEVTCVVVDVSQEDPEVQFNWYVDGVEVHNAKTKPREEQFNSTYRVVSVLTVLHQDWLNGKEYKCKVSNKGLPSSIEKTISKAKGQPREPQVYTLPPCQEEMTKNQVSLWCLVKGFYPSDIAVEWESNGQPENNYKTTPPVLDSDGSFFLYSRLTVDKSRWQEGNVFSCSVMHEALHNHYTQKSLSLSLGKGGGGSGGGGSGGGGSDVQLQESGGGLVQAGGSLRLSCAASGLTFGSYDMGWYRQAPGKQRELVGRIRNDGITYYADSVKGRFTMSRDNAKNTVYLQMNSLKPEDTAVYYCAADGTGLGHYDYWGQGTQVTVS
chain 2: GPPCPPCPAPEFLGGPSVFLFPPKPKDTLMISRTPEVTCVVVDVSQEDPEVQFNWYVDGVEVHNAKTKPREEQFNSTYRVVSVLTVLHQDWLNGKEYKCKVSNKGLPSSIEKTISKAKGQPREPQVCTLPPSQEEMTKNQVSLSCAVKGFYPSDIAVEWESNGQPENNYKTTPPVLDSDGSFFLVSRLTVDKSRWQEGNVFSCSVMHEALHNHYTQKSLSLSLGKGGGGSGGGGSGGGGSEVQLLESGGGLVQPGGSLRLSCAASGFTFGNYDMAWVRQAPGKRPEWVSSIDTGGDITHYADSVKGRFTISRDNAKNTLYLQMNSLRPEDTAVYWCATDEEYALGPNEFDYYGQGTLVTVSS
B7: CIgG4B1A1(GS) (Fc fusion)
chain 1: GPPCPPCPAPEFLGGPSVFLFPPKPKDTLMISRTPEVTCVVVDVSQEDPEVQFNWYVDGVEVHNAKTKPREEQFNSTYRVVSVLTVLHQDWLNGKEYKCKVSNKGLPSSIEKTISKAKGQPREPQVYTLPPCQEEMTKNQVSLWCLVKGFYPSDIAVEWESNGQPENNYKTTPPVLDSDGSFFLYSRLTVDKSRWQEGNVFSCSVMHEALHNHYTQKSLSLSLGKGSQVQLQESGGGLVQTGGSLRLSCAVHGRTFSNTGMGWFRQAPGNERQFVAIISPSGTSTYYADSVKGRFTISRDPAKNTVYLQMNSLKMDDTAVYYCAASYGSNWSTLRHQRRNEYDAWGQGTQVAVS
chain 2: GPPCPPCPAPEFLGGPSVFLFPPKPKDTLMISRTPEVTCVVVDVSQEDPEVQFNWYVDGVEVHNAKTKPREEQFNSTYRVVSVLTVLHQDWLNGKEYKCKVSNKGLPSSIEKTISKAKGQPREPQVCTLPPSQEEMTKNQVSLSCAVKGFYPSDIAVEWESNGQPENNYKTTPPVLDSDGSFFLVSRLTVDKSRWQEGNVFSCSVMHEALHNHYTQKSLSLSLGKGSEVQLLESGGGLVQPGGSLRLSCAASGFTFGNYDMAWVRQAPGKRPEWVSSIDTGGDITHYADSVKGRFTISRDNAKNTLYLQMNSLRPEDTAVYWCATDEEYALGPNEFDYYGQGTLVTVSS
B8: CIgG4B1A1(no linker) (Fc fusion)
chain 1: GPPCPPCPAPEFLGGPSVFLFPPKPKDTLMISRTPEVTCVVVDVSQEDPEVQFNWYVDGVEVHNAKTKPREEQFNSTYRVVSVLTVLHQDWLNGKEYKCKVSNKGLPSSIEKTISKAKGQPREPQVYTLPPCQEEMTKNQVSLWCLVKGFYPSDIAVEWESNGQPENNYKTTPPVLDSDGSFFLYSRLTVDKSRWQEGNVFSCSVMHEALHNHYTQKSLSLSLGKQVQLQESGGGLVQTGGSLRLSCAVHGRTFSNTGMGWFRQAPGNERQFVAIISPSGTSTYYADSVKGRFTISRDPAKNTVYLQMNSLKMDDTAVYYCAASYGSNWSTLRHQRRNEYDAWGQGTQVAVS
chain 2: GPPCPPCPAPEFLGGPSVFLFPPKPKDTLMISRTPEVTCVVVDVSQEDPEVQFNWYVDGVEVHNAKTKPREEQFNSTYRVVSVLTVLHQDWLNGKEYKCKVSNKGLPSSIEKTISKAKGQPREPQVCTLPPSQEEMTKNQVSLSCAVKGFYPSDIAVEWESNGQPENNYKTTPPVLDSDGSFFLVSRLTVDKSRWQEGNVFSCSVMHEALHNHYTQKSLSLSLGKEVQLLESGGGLVQPGGSLRLSCAASGFTFGNYDMAWVRQAPGKRPEWVSSIDTGGDITHYADSVKGRFTISRDNAKNTLYLQMNSLRPEDTAVYWCATDEEYALGPNEFDYYGQGTLVTVSS

Molecular target: T1, recombinant human IgE (human, UniProt P01854-1 1-428)
T1 construct: made in-house (ALK); preloaded on immobilised FcεRIα in the displacement ELISA
T1 sequence (P01854 other isoform, or with tags, fused parts or gaps): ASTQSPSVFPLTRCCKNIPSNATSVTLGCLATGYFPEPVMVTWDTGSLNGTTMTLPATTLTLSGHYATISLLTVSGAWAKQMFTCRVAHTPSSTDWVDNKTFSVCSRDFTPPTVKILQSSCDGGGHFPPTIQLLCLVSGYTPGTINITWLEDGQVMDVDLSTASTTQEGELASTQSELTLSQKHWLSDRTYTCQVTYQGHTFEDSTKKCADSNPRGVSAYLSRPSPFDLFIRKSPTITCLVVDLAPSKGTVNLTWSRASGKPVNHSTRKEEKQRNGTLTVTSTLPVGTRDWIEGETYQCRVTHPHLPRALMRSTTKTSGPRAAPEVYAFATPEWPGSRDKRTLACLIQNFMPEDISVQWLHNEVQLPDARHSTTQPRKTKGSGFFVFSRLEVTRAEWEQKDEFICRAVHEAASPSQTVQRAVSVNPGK
Assay: IgE-FcεRIα displacement ELISA
In short: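 Streptavidin-coated plates carried site-specifically biotinylated recombinant human FcεRIα, loaded with recombinant human IgE at 13 ng/ml. sdAbs in a pM–μM series were added for 1 h, and displaced IgE was washed off. Percent displacement was the signal reduction versus the no-sdAb control, giving EC50 and maximal effect.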

Binder	EC50 [nM]	Max effect [%]
B1	3.1	> 95
B2	3.4	> 95
B3	3.8	> 95
B4	2.9	> 95
B5	8	75
B6	3.3	90
B7	9.1	> 95
B8	14	90
